Source: the Human Domainome abundance scans (Beltran et al. 2025)
± gives the uncertainty stated by the source.

B1: Nucleosome-remodeling factor subunit BPTF, residues 2862 to 2918; numbered along this chain, Q12830 (parent)
chain: TKKDTKLYCICKTPYDESKFYIGCDRCQNWYHGRCVGILQSEAELIDEYVCPQCQST

Variants of: B1
Assay: abundance fitness (aPCA) (normalised: wild type 0, dead -1); higher = more abundant; growth selection in yeast, the domain comes from the species named
Settings: Homo sapiens

Abundance fitness, by site and new letter:
T13: P -0.674 ± 0.12 | D -0.54 ± 0.19 | M -0.176 ± 0.14 | H -0.518 ± 0.14 | R -0.22 ± 0.12 | Q -0.116 ± 0.17 | K -0.044 ± 0.11 | I -0.482 ± 0.08 | L -0.292 ± 0.093 | A -0.357 ± 0.18 | N -0.297 ± 0.074 | C -0.577 ± 0.19 | S -0.116 ± 0.071
F20: D -0.062 ± 0.13 | G -0.226 ± 0.08 | I -0.244 ± 0.12 | P -0.001 ± 0.097 | N -0.044 ± 0.13 | A -0.161 ± 0.09 | E -0.002 ± 0.1 | L -0.193 ± 0.075 | C -0.346 ± 0.11 | Y -0.08 ± 0.12 | R -0.149 ± 0.067 | T -0.009 ± 0.093 | K -0.192 ± 0.099 | M -0.149 ± 0.087 | W -0.083 ± 0.08 | Q -0.104 ± 0.092 | S -0.11 ± 0.072
P14: S -0.161 ± 0.074 | D -0.581 ± 0.12 | W -0.447 ± 0.088 | K -0.096 ± 0.1 | G -0.42 ± 0.075 | N -0.191 ± 0.14 | Q -0.263 ± 0.092 | T -0.206 ± 0.083 | V -0.229 ± 0.087 | I -0.216 ± 0.16 | C -0.367 ± 0.11 | H -0.275 ± 0.11 | Y -0.131 ± 0.13 | L -0.212 ± 0.085 | M -0.096 ± 0.095 | E -0.163 ± 0.11 | A 0.008 ± 0.08
K19: I -0.101 ± 0.089 | V -0.108 ± 0.087 | F -0.351 ± 0.16 | R 0.048 ± 0.1 | N 0.082 ± 0.18 | T -0.231 ± 0.1 | H 0.007 ± 0.14 | W -0.668 ± 0.17 | G -0.244 ± 0.11 | E 0.106 ± 0.12 | Y -0.286 ± 0.13 | S -0.186 ± 0.09 | Q -0.097 ± 0.13 | D 0.044 ± 0.12 | M -0.08 ± 0.098 | L -0.059 ± 0.071 | P -0.637 ± 0.15 | C -0.252 ± 0.13 | A -0.069 ± 0.096
I22: T -0.398 ± 0.12 | V -0.038 ± 0.088 | S -0.786 ± 0.1 | P -0.87 ± 0.12 | E -0.953 ± 0.15 | D -0.819 ± 0.22 | A -0.578 ± 0.1 | G -0.649 ± 0.086 | L 0.015 ± 0.067 | N -0.803 ± 0.18 | M -0.237 ± 0.12 | F -0.609 ± 0.2 | Q -0.641 ± 0.11 | Y -0.617 ± 0.15 | K -0.551 ± 0.12 | R -0.475 ± 0.073 | C -0.806 ± 0.16 | W -0.533 ± 0.11 | H -0.678 ± 0.22
S18: I -1.05 ± 0.26 | D -0.031 ± 0.19 | P -0.759 ± 0.13 | L -0.536 ± 0.1 | N -0.185 ± 0.14 | V -0.72 ± 0.12 | G -0.087 ± 0.1 | T -0.198 ± 0.12 | Q -0.5 ± 0.29 | A -0.217 ± 0.14 | Y -0.37 ± 0.13 | K -0.277 ± 0.27 | C -0.366 ± 0.1 | R -0.24 ± 0.095 | F -0.582 ± 0.14 | W -0.746 ± 0.21 | M -0.284 ± 0.23 | H -0.098 ± 0.11
Y8: P -0.298 ± 0.1 | K 0.065 ± 0.15 | S -0.014 ± 0.078 | D 0.072 ± 0.13 | F -0.037 ± 0.15 | A 0.065 ± 0.09 | C -0.028 ± 0.12 | V -0.081 ± 0.11 | T -0.041 ± 0.097 | W -0.164 ± 0.11 | I -0.166 ± 0.12 | M 0.015 ± 0.1 | Q 0.054 ± 0.14 | G 0.051 ± 0.12 | E 0.166 ± 0.12 | L -0.043 ± 0.081 | R -0.105 ± 0.078
C24: E -0.641 ± 0.14 | W -0.974 ± 0.15 | I -0.871 ± 0.16 | R -0.584 ± 0.096 | T -0.933 ± 0.12 | D -0.765 ± 0.12 | M -1.05 ± 0.13 | H -0.972 ± 0.18 | F -0.735 ± 0.14 | Y -0.894 ± 0.1 | S -0.976 ± 0.1 | A -1.02 ± 0.16 | G -0.909 ± 0.13 | V -0.908 ± 0.11 | L -0.884 ± 0.087 | P -0.539 ± 0.095 | N -0.966 ± 0.16
D25: H -0.061 ± 0.15 | F -0.168 ± 0.16 | L -0.021 ± 0.061 | G -0.041 ± 0.092 | E 0.058 ± 0.07 | Q 0.099 ± 0.099 | P -0.204 ± 0.081 | A -0.011 ± 0.078 | N 0 ± 0.1 | I -0.15 ± 0.16 | K 0.154 ± 0.11 | R 0.025 ± 0.067
C11: Y -0.997 ± 0.1 | V -1.03 ± 0.1 | K -0.822 ± 0.15 | N -0.857 ± 0.21 | S -0.934 ± 0.093 | W -1.09 ± 0.19 | P -0.802 ± 0.12 | Q -0.947 ± 0.17 | F -1.12 ± 0.19 | I -0.968 ± 0.18 | H -1.01 ± 0.2 | A -0.934 ± 0.094 | D -0.759 ± 0.11 | M -0.803 ± 0.14 | E -0.638 ± 0.15 | R -0.818 ± 0.1 | G -0.771 ± 0.079 | L -0.828 ± 0.092
